From the supplement of paper PMC9170038

System: MS2 coat protein
Experiment: apparent KD of MS2 coat protein; designed switch direction (-1 OFF switch, 1 ON switch): -1; higher = weaker reporter binding
How it was run: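 The reported apparent KD is a per-design median over clusters, from curve fits of normalised cluster fluorescence. Protein titrations used SNAP-549-labelled MS2 coat protein, doubled from 0.7 or 1.5 nM to 3 µM, in Tris-HCl pH 7.5 buffer with KCl, MgCl2, BSA, DTT, tRNA and Tween-20, with no input, 200 uM small-molecule ligand, or an oligonucleotide input. The RNA switches were transcribed on Illumina chips by stalled E. coli RNA polymerase.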

[1] = input ligand: microRNA oligo, concentration not stated
[2] = Eterna round: R95, input ligand: microRNA oligo, concentration not stated
[3] = Eterna round: R95, input ligand: FMN 200 uM
[4] = Eterna round: R95, input ligand: none

In the case of “CUGCUCCGUGUAGGAUAUGCAUGCAACCAAUAUGCAGAAGGACAUGAGGAUCACCCAUGUAUGUUAUUAUCACGUGAAGCGUCC [Design 22] (Eterna round: R96, puzzle: Exclusion NG 1)”, the “apparent KD of MS2 coat protein” value (input ligand: FMN 200 uM) is reported as 27.1 nM, the “apparent KD of MS2 coat protein” value [1] is reported as 19.5 nM and the “apparent KD of MS2 coat protein” value (input ligand: none) is reported as 29.8 nM.
In the case of “ACGCAUUGCCAAAGGUAGUGCGUAACAUGAGGAUCACCCAUGUAGGAUAUGGUAGGCUUUGCUUACCAGAAGGACAUAAUAAUU [Mat - Exclusion NG 3 - Mod of JL - D4] (Eterna round: R96, puzzle: Exclusion NG 3)”, the “apparent KD of MS2 coat protein” value (input ligand: FMN 200 uM) is reported as 43.6 nM, the “apparent KD of MS2 coat protein” value [1] is reported as 22.7 nM and the “apparent KD of MS2 coat protein” value (input ligand: none) is reported as 27.8 nM.
With “UUUUUUGUUGUGAGGAUAUCGUUGUGGAUGUGGAUCGAGAAGGCACAUGAGGAUCACCCAUGUUUGUUGUGGUU [JR_BMOE4_Sub085] (puzzle: Brourd's mod of Exclusion 4)” the “apparent KD of MS2 coat protein” value [2] was 86.7 nM.
“CCAGACGCUGUGAGGAUAUGAAAAGGUGCUGCUUUUUAGAAGGCACAUGAGGAUCACCCAUGUGGUACCUCGGG [Eternabot (L1) Solution 20] (Eterna round: R97, puzzle: Brourd's mod of Exclusion 4)” was tested, and the “apparent KD of MS2 coat protein” value (input ligand: FMN 200 uM) was 397 nM and the “apparent KD of MS2 coat protein” value (input ligand: none) was 514 nM.
In the case of “GUGACCAUAGGAUAUACAUGAGGAUCACCCAUGUGCAGGUCGGAAGACCCGCGGUCAUGUAGAAGGAUGUAAUU [EX3 A.23] (Eterna round: R97, puzzle: Exclusion 3)”, the “apparent KD of MS2 coat protein” value (input ligand: FMN 200 uM) is reported as 18.2 nM and the “apparent KD of MS2 coat protein” value (input ligand: none) is reported as 16.2 nM.
“ACAUGAGGAUCACCCAUGUCCGGCUGGUCUGUCUCGGCUGUCGAGGAUAUAGCACGGUAUCCGCGCUAGAAGGCGGGAGCCGGU [Aenatbe mod 87] (Eterna round: R96, puzzle: Exclusion NG 3)” was tested, and the “apparent KD of MS2 coat protein” value (input ligand: FMN 200 uM) was 216 nM, the “apparent KD of MS2 coat protein” value [1] was 29 nM and the “apparent KD of MS2 coat protein” value (input ligand: none) was 42.8 nM.
For “AAACUCCGGGUGAGGAUAUCUAGCAUCAAGACGCGAGAGAAGGCACUUGAGGAUCACCCAAGUACGUGGCCUAA [Quare] (Eterna round: R97, puzzle: Brourd's mod of Exclusion 4)”, the “apparent KD of MS2 coat protein” value (input ligand: FMN 200 uM) was 153 nM and the “apparent KD of MS2 coat protein” value (input ligand: none) was 99.9 nM.
With “UUAAAUCAUGUAGGAUAUGCGUGGCGAAGCUAUGCAGAAGGACAUGAGGAUCACCCAUGUUCCUGCGUCCGCGUACGGAUGCAA [JL Eng1 1.21 mod] (Eterna round: R96, puzzle: Exclusion NG 1)” the “apparent KD of MS2 coat protein” value (input ligand: FMN 200 uM) was 167 nM, the “apparent KD of MS2 coat protein” value [1] was 16.3 nM and the “apparent KD of MS2 coat protein” value (input ligand: none) was 18.1 nM.
With “GUAGAGUCAGGAUAUACGAGAUCGAAAGAUCAAAGAUCCUUACAUGAGGAUCACCCAUGUAGAAGGGACUCUAC [Eli x2 4.14] (Eterna round: R97, puzzle: Exclusion 2)” the “apparent KD of MS2 coat protein” value (input ligand: FMN 200 uM) was 574 nM and the “apparent KD of MS2 coat protein” value (input ligand: none) was 37.1 nM.
“UUUUAACAUGAGGAUCACCCAUGUGAGGAUAUCGAAAUUUAUAUUAAUAUUAUUUUAUCGAGAAGGCACAUUUU [JMF 48] (puzzle: Exclusion 1)” was tested, and the “apparent KD of MS2 coat protein” value [2] was 122 nM.
“AAACCUGCCCAUGACCGCAAGCUUUUUGCUUGUCUCACCACAUGAGGAUCACCCAUGUGACAUGGGCUCCUUAUAAA [Orvesovera] (puzzle: Sensor v3, turn-off variant 2)” was tested, and the “apparent KD of MS2 coat protein” value [3] was 13.7 nM, the “apparent KD of MS2 coat protein” value [2] was 9.96 nM and the “apparent KD of MS2 coat protein” value [4] was 12 nM.
In the case of “AUUUAGUGAGGAUAUGUGGCUUCGAUCGUGAGAUCGAGGCUACAGAAGGCACAUGAGGAUCACCCAUGUUCCUA [salish99_ex4_r4_115] (Eterna round: R97, puzzle: Exclusion 4)”, the “apparent KD of MS2 coat protein” value (input ligand: FMN 200 uM) is reported as 86.3 nM and the “apparent KD of MS2 coat protein” value (input ligand: none) is reported as 21.4 nM.
“UUUAGUUGGUAAGGAUAUCCUACAUUGUUCUGGCCCGGGCAUGCUACAUGAGGAUCACCCAUGUGGGAGAAGGUGCGUCAUUGC [Design 20] (Eterna round: R96, puzzle: Exclusion NG 2)” was tested, and the “apparent KD of MS2 coat protein” value (input ligand: FMN 200 uM) was 42.5 nM, the “apparent KD of MS2 coat protein” value [1] was 42.5 nM and the “apparent KD of MS2 coat protein” value (input ligand: none) was 51.8 nM.
With “CAAGUCCUUUACUACAAGCACAUGAGGAUCACCCAUGUCAAAUUUGUGCCUCGGUACGGAAGCUCGUCUUUUCGUAG [Eternabot (L2) Solution 1] (Eterna round: R97, puzzle: Sensor, turn-off variant 1)” the “apparent KD of MS2 coat protein” value (input ligand: FMN 200 uM) was 30 nM and the “apparent KD of MS2 coat protein” value (input ligand: none) was 35.6 nM.
With “AUCAGCUCGUGAGGAUAUGCACAUGAGGAUCACCCAUGUAAGAUCAAGCUGCUUCGGCAGCAAGUGCAGAAGGCACGAGCUGAU [ENG2/9-A2] (Eterna round: R96, puzzle: Exclusion NG 2)” the “apparent KD of MS2 coat protein” value (input ligand: FMN 200 uM) was 186 nM, the “apparent KD of MS2 coat protein” value [1] was 132 nM and the “apparent KD of MS2 coat protein” value (input ligand: none) was 182 nM.
For “CGUCUGUUAGGAUAUGACCCGCGUACCGUGUCGAGCCGGGUUCAGAAGGAACAUGAGGAUCACCCAUGUGAGAA [Eternabot (L1) Solution 12] (Eterna round: R97, puzzle: Exclusion 4)”, the “apparent KD of MS2 coat protein” value (input ligand: FMN 200 uM) was 163 nM and the “apparent KD of MS2 coat protein” value (input ligand: none) was 27.3 nM.
In the case of “ACAUGUCAUCGAGGAUAUUGCACACAUGAGGAUCACCCAUGUAUACGGUUGCUCUUGCGUGAGUUCGAGAAGGCGAUGUACAUU [Ex NG2 #86] (Eterna round: R96, puzzle: Exclusion NG 2)”, the “apparent KD of MS2 coat protein” value (input ligand: FMN 200 uM) is reported as 109 nM, the “apparent KD of MS2 coat protein” value [1] is reported as 198 nM and the “apparent KD of MS2 coat protein” value (input ligand: none) is reported as 313 nM.
“CGAUGACCGGUGAGGAUAUCGUGUUCGAAAGAACGUGAGAAGGCACAUGAGGAUCACCCAUGUGAUCCUCAUCG [Omei Ex4B A33] (Eterna round: R97, puzzle: Brourd's mod of Exclusion 4)” was tested, and the “apparent KD of MS2 coat protein” value (input ligand: FMN 200 uM) was 25.9 nM and the “apparent KD of MS2 coat protein” value (input ligand: none) was 18.2 nM.
With “UAUUUACAUGAGGAUCACCCAUGUCAGGAUAUGUUUCUAUCGUCGAAAGACGAUAUUUGCAGAAGGGACAAUAU [LRO-Excl01-26 mod derived from EliFisker 4.24] (Eterna round: R97, puzzle: Exclusion 1)” the “apparent KD of MS2 coat protein” value (input ligand: FMN 200 uM) was 64.4 nM and the “apparent KD of MS2 coat protein” value (input ligand: none) was 27.9 nM.
For “GGUCCUGAUGAUUUCCUAGACAUGAGGAUCACCCAUGUUUAUUUAUUUUGUUUUUAGCUUUUUGGUCGUCAAUAAUA [Mod-Hoo-honey-4] (Eterna round: R97, puzzle: Sensor, turn-off variant 1)”, the “apparent KD of MS2 coat protein” value (input ligand: FMN 200 uM) was 100 nM and the “apparent KD of MS2 coat protein” value (input ligand: none) was 99.6 nM.
In the case of “CUGGUCCGAGGAUAUAUUAAGUGAUACAUGAGGAUCACCCAUGUUAUUUAAUGGAUGUAAAUAGAAGGCGGACUAG [Mat - Exclusion 5 - JL mod - D70] (puzzle: Exclusion 5)”, the “apparent KD of MS2 coat protein” value [3] is reported as 51 nM, the “apparent KD of MS2 coat protein” value [2] is reported as 42.6 nM and the “apparent KD of MS2 coat protein” value [4] is reported as 44.6 nM.
“UGAUGUAGAGGAUAUUGUAUGGCUCACAUGAGGAUCACCCAUGUAGGAUCACCUAGAGCCCGAGAAGGCUAGAGGU [Eternabot (L2) Solution 4] (Eterna round: R97, puzzle: Exclusion 5)” was tested, and the “apparent KD of MS2 coat protein” value (input ligand: FMN 200 uM) was 47 nM and the “apparent KD of MS2 coat protein” value (input ligand: none) was 45.8 nM.
For “UUAUUAUAUGAAGGAUAUACUUAACAUGAGGAUCACCCAUGUGGUGUUGUGAGUGAGUGAGUUUAGUAGAAGGUCAAUGAUUUU [JMF's solution 72] (Eterna round: R96, puzzle: Exclusion NG 2)”, the “apparent KD of MS2 coat protein” value (input ligand: FMN 200 uM) was 1490 nM, the “apparent KD of MS2 coat protein” value [1] was 186 nM and the “apparent KD of MS2 coat protein” value (input ligand: none) was 428 nM.
“CCCUCACAUGAGGAUCACCCAUGUCAGGAUAUGCGCGGCCAAAAGGGCUGCUAAGGCAGCAGAAGGGACGUGAA [Eninored] (puzzle: Exclusion 1)” was tested, and the “apparent KD of MS2 coat protein” value [2] was 14.4 nM.
For “CCAAAGCGAGGAUAUACUUGCGACCCAAGCGUGGAAGACAUACUUGAGGAUCACCCAAGUAGAAGGCGCGCCAA [Dibixela] (Eterna round: R97, puzzle: Exclusion 2)”, the “apparent KD of MS2 coat protein” value (input ligand: FMN 200 uM) was 145 nM and the “apparent KD of MS2 coat protein” value (input ligand: none) was 92 nM.
